Laboratory results taken from patent US20110135573A1 (DYAX, published 2011).
Changes are numbered by the printed parent chain.

B1: X0106-B02 (antibody, V domains shown)
VH: EVQLLESGGGLVQPGGSLRLSCAASGFTFSWYDMWWVRQAPGKGLEWVSVIYSSGGPTFYADSVKGRFTISRDNSKNTLYLQMNSLRAEDTAVYYCAKDRAYGDYVGWNGFDYWGQGTLVTVSS
VL: EIVLTQSPATLSLSPGERATLSCRASQSISSFLAWYQQKPGQAPRLLIYDASYRATGIPARFSGSGSGTDFTLTISSLEPEDFAVYYCQQRGNWPITFGQGTRLEIK
notes: Produced and tested as IgG1; germlined, optimized version of M0276-F11
B2: M0275-D03 (Fab, V domains shown)
VH: EVQLLESGGGLVQPGGSLRLSCAASGFTFSQYDMWWVRQAPGKGLEWVSVIYPSGTTFYADSVKGRFTISRDNSKNTLYLQMNSLRAEDTAVYYCAKDRAYGDYVGWNGFDYWGQGTLVTVSS
VL: B1 VL with E1D, V3Q, L4M, F83Y
notes: sFab; variable domains only; also called M275-D03
B3: X0106-E04 (antibody, V domains shown)
VH: B2 VH
VL: B1 VL
notes: Produced and tested as IgG1; germlined, optimized version of M0275-D03; also called X0106-E4
B4: M0256-D11 (Fab, V domains shown)
VH: B1 VH with W31H
VL: B1 VL with E1D, V3Q, L4M, F83Y
notes: sFab; variable domains only; also called M256-D11; 539A-M0256-D11
B5: M0299-A12 (Fab, V domains shown)
VH: B1 VH with W31H, D33P, V50Y, Y52S, P57G
VL: B1 VL with E1D, V3Q, L4M, F83Y
notes: sFab; variable domains only; also called M299-A12
B6: M0275-E12 (Fab, V domains shown)
VH: B1 VH with W31H, P57F, F59G
VL: B1 VL with E1D, V3Q, L4M, F83Y
notes: sFab; variable domains only; also called M275-E12
B7: M0273-B10 (Fab, V domains shown)
VH: B1 VH with W31K, D33A, W35I, V50W, Y52P, S53P, P57Y, F59S
VL: B1 VL with E1D, V3Q, L4M, F83Y
notes: sFab; variable domains only; also called M273-B10
B8: X0106-F05 (antibody, V domains shown)
VH: B1 VH with W31L, P57Y, F59G
VL: B1 VL
notes: Produced and tested as IgG1; germlined, optimized version of M0307-F04
B9: M0299-C09 (Fab, V domains shown)
VH: B1 VH with W31N, D33P, V50Y, Y52V, S53P, P57A
VL: B1 VL with E1D, V3Q, L4M, F83Y
notes: sFab; variable domains only; also called M299-C09
B10: M0301-A09 (Fab, V domains shown)
VH: B1 VH with W31Y, S53P, P57Y, F59A
VL: B1 VL with E1D, V3Q, L4M, F83Y
notes: sFab; variable domains only; also called M301-A09
B11: M0288-C08 (Fab, V domains shown)
VH: B1 VH with W31Q, D33P, V50Y, Y52V, S53P, P57R, F59Y
VL: DIQMTQSPGTLSVSPGERVTLSCRASQSVSSYLAWYQQKPGQAPRLLIYGASTRVTGIPARFSGSGSGTEFTLTISSLQSEDFAVYYCQQRSSWPITFGQGTRLEIK
notes: sFab; variable domains only; also called M288-C08
B12: M0274-G08 (Fab, V domains shown)
VH: B1 VH with W31V, S53P, P57A, F59Y
VL: B1 VL with E1D, V3Q, L4M, F83Y
notes: sFab; variable domains only; also called M274-G08
B13: X0106-C03 (antibody, V domains shown)
VH: B1 VH with W31V, S53P, P57A, F59Y
VL: B1 VL
notes: Produced and tested as IgG1; germlined, optimized version of M0274-G08; printed as X0106-C04 in some sentences; also called X0106-C04
B14: M0301-D12 (Fab, V domains shown)
VH: B1 VH with W31M, P57Y, F59S
VL: B1 VL with E1D, V3Q, L4M, F83Y
notes: sFab; variable domains only; also called M301-D12
B15: M0306-D04 (Fab, V domains shown)
VH: B1 VH with W31L, D33P, V50S, S53P, P57A
VL: B1 VL with E1D, V3Q, L4M, F83Y
notes: sFab; variable domains only; also called M306-D04
B16: M0276-F11 (Fab, V domains shown)
VH: B1 VH
VL: B1 VL with E1D, V3Q, L4M, F83Y
notes: sFab; variable domains only; also called M276-F11
B17: M0273-C10 (Fab, V domains shown)
VH: B1 VH with W31F, D33P, V50Y, S53P, P57A
VL: B1 VL with E1D, V3Q, L4M, F83Y
notes: sFab; variable domains only; also called M273-C10
B18: M0273-A11 (Fab, V domains shown)
VH: B1 VH with W31R, Y52S, S53P, P57A
VL: B1 VL with E1D, V3Q, L4M, F83Y
notes: sFab; variable domains only; also called M273-A11
B19: M0273-G07 (Fab, V domains shown)
VH: B1 VH with W31H, S53P, F59Y
VL: B1 VL with E1D, V3Q, L4M, F83Y
notes: sFab; variable domains only; also called M273-G07
B20: M0307-F04 (Fab, V domains shown)
VH: B1 VH with W31L, P57Y, F59G
VL: B1 VL with E1D, V3Q, L4M, F83Y
notes: sFab; variable domains only; also called M307-F04
B21: M0272-H08 (Fab, V domains shown)
VH: B1 VH with W31A, S53P, P57T
VL: B1 VL with E1D, V3Q, L4M, F83Y
notes: sFab; variable domains only; also called M272-H08

How the values were obtained:
[1] = molecular target: T1, Mouse MMP-9 (R&D, 909-MM), APMA-activated (mouse, UniProt P41245 108-730, limits assumed); test: Ki,app, enzyme inhibition assay (fluorogenic peptide substrate), IgG
T1 construct: also called mMMP-9; mouse MMP-9 (R&D Systems #909-MM-010)

[2] = molecular target: T2, human MMP-2 (Biomol #SE-237) (human, UniProt P08253 110-452, limits assumed); test: as above
T2 construct: also called hMMP-2

[3] = molecular target: T3, Human MMP-9 catalytic domain (BIOMOL, SE-244) (human, UniProt P14780 107-457, limits assumed); test: as above
T3 construct: domain: catalytic domain; also called Cat-huMMP-9; cat-huMMP-9

[4] = molecular target: T1, Mouse MMP-9 (R&D, 909-MM), …; test: Ki,app, enzyme inhibition assay (fluorogenic peptide substrate), small-scale sFab
Experimental: (§1) Target enzymes were incubated with inhibitor for two hours at 30° C. in reaction buffer (50 mM Tris-HCl pH 7.5, 150 mM NaCl, 5 mM CaCl₂, 0.05% Brij-35) in a total volume of 90 μL using a white 96 well plate (Costar). […] An anti-MMP-2 antibody (R&D Systems polyclonal IgG #AF902) was similarly tested with 200 nM as the highest inhibitor concentration. Reactions were initiated by the addition of 10 μL of a 10× concentrated stock of substrate, Mca-Lys-Pro-Leu-Gly-Leu-Dap(Dnp)-Ala-Arg-NH2, (Bachem M-2350), at final concentration of 10 μM and monitored at 30° C. in a Molecular Devices' Gemini fluorescence plate reader. The excitation and emission wavelengths were set at 328 nm and 393 nm, respectively. Kinetic data were acquired by the increase in fluorescence, and initial rates for each condition were plotted against the total inhibitor concentration. Reactions were performed in duplicates and all data replicates were plotted in a single graph and fit to the following equation¹: […]

[5] = molecular target: T2, human MMP-2 (Biomol #SE-237); test: as above
Experimental: as §1

[6] = molecular target: T3, Human MMP-9 catalytic domain (BIOMOL, …); test: as above
Experimental: as §1

[7] = molecular target: T1, Mouse MMP-9 (R&D, 909-MM), …; test: Ki,app, enzyme inhibition assay (fluorogenic peptide substrate), medium-scale sFab
Experimental: as §1

[8] = molecular target: T2, human MMP-2 (Biomol #SE-237); test: as above
Experimental: as §1

[9] = molecular target: T3, Human MMP-9 catalytic domain (BIOMOL, …); test: as above
Experimental: as §1

[10] = molecular target: T3, Human MMP-9 catalytic domain (BIOMOL, …); test: Ki,app, enzyme inhibition assay (fluorogenic peptide substrate), small-scale sFab; remark: listed apart in the source
[11] = molecular target: T1, Mouse MMP-9 (R&D, 909-MM), …; test: Ki,app, enzyme inhibition assay (fluorogenic peptide substrate), medium-scale sFab; remark: listed apart in the source
[12] = molecular target: T2, human MMP-2 (Biomol #SE-237); test: as above; remark: listed apart in the source
[13] = molecular target: T3, Human MMP-9 catalytic domain (BIOMOL, …); test: as above; remark: listed apart in the source

T3 sequence (P14780 107-457 limits assumed): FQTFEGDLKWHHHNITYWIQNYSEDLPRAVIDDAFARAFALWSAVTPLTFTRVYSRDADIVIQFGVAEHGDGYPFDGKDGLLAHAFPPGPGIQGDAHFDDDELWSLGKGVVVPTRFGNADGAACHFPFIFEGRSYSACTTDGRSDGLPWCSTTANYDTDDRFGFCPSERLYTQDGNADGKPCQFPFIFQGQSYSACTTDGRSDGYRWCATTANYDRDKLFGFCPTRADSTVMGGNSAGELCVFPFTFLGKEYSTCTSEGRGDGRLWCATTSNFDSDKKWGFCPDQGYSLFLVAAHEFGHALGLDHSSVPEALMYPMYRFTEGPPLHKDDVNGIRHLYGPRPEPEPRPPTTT
T1 sequence (P41245 108-730 limits assumed): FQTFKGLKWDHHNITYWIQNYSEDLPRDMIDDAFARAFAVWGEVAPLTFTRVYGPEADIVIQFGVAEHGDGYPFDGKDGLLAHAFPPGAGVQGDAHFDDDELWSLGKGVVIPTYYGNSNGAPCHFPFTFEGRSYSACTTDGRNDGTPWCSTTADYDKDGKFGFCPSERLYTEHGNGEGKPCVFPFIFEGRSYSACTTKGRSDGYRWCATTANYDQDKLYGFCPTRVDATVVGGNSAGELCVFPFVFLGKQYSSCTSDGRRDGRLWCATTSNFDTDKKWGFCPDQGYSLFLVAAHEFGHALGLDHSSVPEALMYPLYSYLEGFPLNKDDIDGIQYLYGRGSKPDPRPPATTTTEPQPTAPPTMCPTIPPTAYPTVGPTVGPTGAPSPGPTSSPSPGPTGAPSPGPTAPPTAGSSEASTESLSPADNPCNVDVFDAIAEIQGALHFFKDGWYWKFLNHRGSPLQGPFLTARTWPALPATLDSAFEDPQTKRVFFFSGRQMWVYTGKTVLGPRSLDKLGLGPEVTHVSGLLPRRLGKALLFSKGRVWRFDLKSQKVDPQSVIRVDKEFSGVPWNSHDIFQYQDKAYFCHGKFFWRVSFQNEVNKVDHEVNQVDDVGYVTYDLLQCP
T2 sequence (P08253 110-452 limits assumed): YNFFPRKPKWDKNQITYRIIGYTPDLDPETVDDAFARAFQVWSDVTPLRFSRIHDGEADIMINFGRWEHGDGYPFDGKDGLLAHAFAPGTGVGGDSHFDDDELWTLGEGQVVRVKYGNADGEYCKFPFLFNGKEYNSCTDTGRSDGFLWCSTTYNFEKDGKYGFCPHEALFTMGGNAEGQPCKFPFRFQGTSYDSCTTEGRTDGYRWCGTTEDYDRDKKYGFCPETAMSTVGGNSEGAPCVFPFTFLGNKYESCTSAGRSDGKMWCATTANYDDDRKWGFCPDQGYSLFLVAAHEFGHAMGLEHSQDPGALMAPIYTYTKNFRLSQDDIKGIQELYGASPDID

| Binder | Ki [5] [nM] | Ki [6] [nM] | Ki [8] [nM] | Ki [9] [nM] | other results |
| --- | --- | --- | --- | --- | --- |
| B1 | – | – | – | – | Ki [1]: 0.24 nM; Ki [2]: 0.31 nM; Ki [3]: 0.08 nM |
| B2 | 0.7 | 0.6 | 0.5 | 0.6 | Ki [4]: 1.2 nM; Ki [7]: 1 nM |
| B3 | – | – | – | – | Ki [1]: 0.23 nM; Ki [2]: 0.38 nM; Ki [3]: 0.13 nM |
| B4 | – | 0.3 | 0.5 | 0.3 | Ki [7]: 0.6 nM |
| B5 | 1.7 | 0.2 | 1.7 | 0.6 | – |
| B6 | 0.9 | 0.3 | 0.5 | 0.4 | Ki [4]: 1 nM |
| B7 | – | 0.7 | – | – | – |
| B8 | – | – | – | – | Ki [1]: 0.1 nM; Ki [2]: 0.3 nM; Ki [3]: 0.15 nM |
| B9 | > 5 | 0.7 | – | – | – |
| B10 | 0.5 | 0.3 | 1 | 0.5 | – |
| B11 | – | – | – | – | Ki [10]: 2 nM; Ki [11]: 13 nM; Ki [12]: > 1000 nM; Ki [13]: 1.8 nM |
| B12 | – | 0.6 | 0.4 | 0.5 | Ki [7]: 0.6 nM |
| B13 | – | – | – | – | Ki [1]: 0.22 nM; Ki [2]: 0.42 nM; Ki [3]: 0.14 nM |
| B14 | 1.2 | 1 | > 10 | 1.7 | – |
| B15 | 1 | 0.9 | – | – | Ki [4]: 2.8 nM |
| B16 | 0.2 | 0.2 | 0.4 | 0.4 | Ki [4]: 0.4 nM; Ki [7]: 0.6 nM |
| B17 | – | 0.9 | 2 | 1 | – |
| B18 | – | 0.6 | 2.7 | 0.8 | – |
| B19 | – | 0.6 | 1 | 0.6 | – |
| B20 | 0.1 | 0.1 | 0.4 | 0.8 | Ki [4]: 0.1 nM; Ki [7]: 0.4 nM |
| B21 | – | 0.4 | – | – | – |
